This series concerns the molecule itself. The series can be described thus: SEC; analytical gel filtration, 100 ug purified protein, Superdex S200 Increase 10/300, 50 mM Hepes (pH 8.0), 300 mM NaCl, 1 mM MnCl2; approximate molecular weight by interpolation of a standard curve. A general note: SEC sorts molecules by how far they enter the pores of the column.

The term stoichiometry N denotes a count of units in the complex or per binding partner.

B1: M17 aminopeptidase from Plasmodium falciparum, wildtype (truncated, amino acids 85-605) (enzyme, UniProt Q8IL11 85-605, looked up)
chain: ASEVPQVVSLDPTSIPIEYNTPIHDIKVQVYDIKGGCNVEEGLTIFLVNNPGKENGPVKISSKVNDKNVSEFLKDENMEKFNVKLGTSKHFYMFNDNKNSVAVGYVGCGSVADLSEADMKRVVLSLVTMLHDNKLSKLTVVFEINVDKNLFRFFLETLFYEYMTDERFKSTDKNVNMEYIKHLGVYINNADTYKEEVEKARVYYFGTYYASQLIAAPSNYCNPVSLSNAAVELAQKLNLEYKILGVKELEELKMGAYLSVGKGSMYPNKFIHLTYKSKGDVKKKIALVGKGITFDSGGYNLKAAPGSMIDLMKFDMSGCAAVLGCAYCVGTLKPENVEIHFLSAVCENMVSKNSYRPGDIITASNGKTIEVGNTDAEGRLTLADALVYAEKLGVDYIVDIATLTGAMLYSLGTSYAGVFGNNEELINKILNSSKTSNEPVWWLPIINEYRATLNSKYADINNISSSVKASSIVASLFLKEFVQNTAWAHIDIAGVSWNFKARKPKGFGVRLLTEFVLNDAL
notes: Homohexamer, a dimer of trimers; also called PfA-M17; wildtype PfA-M17; source: E. coli BL21(DE3), autoinduction, purified (nickel-nitrilotriacetic acid agarose, gel filtration on Superdex S200)
For the protein B1, the “stoichiometry N” value is 6.

B2: PfA-M17 (A387P) (enzyme)
chain: ASEVPQVVSLDPTSIPIEYNTPIHDIKVQVYDIKGGCNVEEGLTIFLVNNPGKENGPVKISSKVNDKNVSEFLKDENMEKFNVKLGTSKHFYMFNDNKNSVAVGYVGCGSVADLSEADMKRVVLSLVTMLHDNKLSKLTVVFEINVDKNLFRFFLETLFYEYMTDERFKSTDKNVNMEYIKHLGVYINNADTYKEEVEKARVYYFGTYYASQLIAAPSNYCNPVSLSNAAVELAQKLNLEYKILGVKELEELKMGAYLSVGKGSMYPNKFIHLTYKSKGDVKKKIALVGKGITFDSGGYNLKPAPGSMIDLMKFDMSGCAAVLGCAYCVGTLKPENVEIHFLSAVCENMVSKNSYRPGDIITASNGKTIEVGNTDAEGRLTLADALVYAEKLGVDYIVDIATLTGAMLYSLGTSYAGVFGNNEELINKILNSSKTSNEPVWWLPIINEYRATLNSKYADINNISSSVKASSIVASLFLKEFVQNTAWAHIDIAGVSWNFKARKPKGFGVRLLTEFVLNDAL
notes: M17 aminopeptidase of Plasmodium falciparum, amino acids 85-605, with a proline in place of Ala387 by site-directed mutagenesis (PCR); the PDB entries hold the wildtype parent; source: E. coli BL21(DE3), autoinduction, purified (nickel-nitrilotriacetic acid agarose, gel filtration on Superdex S200)
As to B2, the “stoichiometry N” value was 6.

The values are drawn from publication PMC9270245, “A metal ion–dependent conformational switch modulates activity of the Plasmodium M17 aminopeptidase” (The Journal of Biological Chemistry, 2022).
